This assay has as its target acetylcholine receptor (Homo sapiens, UniProt P02708). As to the kind of experiment: SPR binding affinity (RU) of optimized 5mer/6mer/7mer peptides, Examples 6-7. Particulars: SPR, Resonance Units; peptides tested at 10 μM; 6mer-2 Top sequence. In short, it runs like this:
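Response units from SPR give the binding values listed. Each synthesized peptide was run at 10 μM over the receptor.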
Background: Surface plasmon resonance follows binding to a sensor surface in real time, without labels.

acetylcholine receptor, sequence (P02708 21-457): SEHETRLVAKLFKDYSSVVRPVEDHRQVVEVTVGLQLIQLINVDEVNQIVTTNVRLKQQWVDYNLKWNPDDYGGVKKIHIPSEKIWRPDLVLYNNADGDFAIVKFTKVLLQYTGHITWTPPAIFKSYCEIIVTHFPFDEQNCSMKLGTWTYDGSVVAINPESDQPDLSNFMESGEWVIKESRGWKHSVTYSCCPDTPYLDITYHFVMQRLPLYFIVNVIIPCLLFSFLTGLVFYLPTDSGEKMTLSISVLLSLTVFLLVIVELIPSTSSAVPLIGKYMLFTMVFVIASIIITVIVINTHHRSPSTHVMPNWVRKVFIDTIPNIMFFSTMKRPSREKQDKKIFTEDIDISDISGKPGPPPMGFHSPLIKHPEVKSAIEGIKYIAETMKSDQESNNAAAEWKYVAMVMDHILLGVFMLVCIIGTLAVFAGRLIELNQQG

For the substance 6mer-2-467 (KQYSRR), the Binding affinity turned out to be 142 Ru.

Regarding 6mer-2-468 (RSFSKR), the Binding affinity is reported as 133 Ru.

For 6mer-2-469 (RLRTKK), the Binding affinity is listed as 153 Ru.

For 6mer-2-470 (RLRRRK), the Binding affinity is on record as 153 Ru.

6mer-2-471 (KWISRR): the Binding affinity amounted to 136 Ru.

Regarding 6mer-2-472 (RSRLRR), the Binding affinity is 148 Ru.

As for 6mer-2-473 (RGRLRK), the Binding affinity is reported as 131 Ru.

Turning to 6mer-2-474 (RWQQRR), the Binding affinity was 128 Ru.

As for 6mer-2-475 (KRFCRR), the Binding affinity was 139 Ru.

Consider 6mer-2-476 (KGIRKK), for which the Binding affinity came out at 148 Ru.

On to 6mer-2-477 (RSRTRR), for which the Binding affinity was determined as 135 Ru.

On to 6mer-2-478 (KWYTRK), for which the Binding affinity stood at 145 Ru.

For 6mer-2-479 (KWRLKK), the Binding affinity was 154 Ru.

As for 6mer-2-480 (RRFTKK), the Binding affinity was found to be 147 Ru.

With 6mer-2-481 (RQRYKK), the Binding affinity is listed as 131 Ru.

Consider 6mer-2-482 (KGQTRR), for which the Binding affinity is listed as 154 Ru.

On to 6mer-2-483 (RRYLKK), for which the Binding affinity is given as 121 Ru.

Turning to 6mer-2-484 (RWYTKR), the Binding affinity amounted to 148 Ru.

Consider 6mer-2-485 (RQIQKR), for which the Binding affinity came out at 148 Ru.

For 6mer-2-486 (KQQSKK), the Binding affinity was 121 Ru.

Consider 6mer-2-487 (KSYTKR), for which the Binding affinity came out at 121 Ru.

Turning to 6mer-2-488 (KVYRRK), the Binding affinity amounted to 146 Ru.

Turning to 6mer-2-489 (RVISKK), the Binding affinity turned out to be 142 Ru.

Turning to 6mer-2-490 (RRYQKK), the Binding affinity is 145 Ru.

Consider 6mer-2-491 (KRICKR), for which the Binding affinity is 135 Ru.

Consider 6mer-2-492 (RLIQKK), for which the Binding affinity is 148 Ru.

As to 6mer-2-493 (KGVRRK), the Binding affinity is 123 Ru.

Consider 6mer-2-494 (KGLLRR), for which the Binding affinity is on record as 144 Ru.

On to 6mer-2-495 (KLLCKK), for which the Binding affinity is listed as 121 Ru.

Take 6mer-2-496 (RVRYRK): the Binding affinity is reported as 144 Ru.

Take 6mer-2-497 (KSYTRR): the Binding affinity came to 148 Ru.

In the case of 6mer-2-498 (KGLCRR), the Binding affinity is on record as 127 Ru.

Regarding 6mer-2-499 (RLFTKR), the Binding affinity is reported as 145 Ru.

For 6mer-2-500 (KRICRR), the Binding affinity is 146 Ru.

6mer-2-501 (KSYSKK): the Binding affinity stood at 144 Ru.

Regarding 6mer-2-502 (KSFCKR), the Binding affinity was 144 Ru.

As for 6mer-2-503 (KVQTKK), the Binding affinity came to 154 Ru.

On to 6mer-2-504 (RGLTRK), for which the Binding affinity came out at 154 Ru.

With 6mer-2-505 (KRQCKK), the Binding affinity amounted to 148 Ru.

On to 6mer-2-506 (KSLLKK), for which the Binding affinity is 135 Ru.

Turning to 6mer-2-507 (RGICKR), the Binding affinity was found to be 145 Ru.

Consider 6mer-2-508 (RVFLKK), for which the Binding affinity was found to be 121 Ru.

As to 6mer-2-509 (RGFYRK), the Binding affinity worked out at 136 Ru.

6mer-2-510 (KRVLKK): the Binding affinity is recorded as 146 Ru.

Turning to 6mer-2-511 (RVFCRR), the Binding affinity stood at 126 Ru.

Regarding 6mer-2-512 (RWFTRR), the Binding affinity amounted to 148 Ru.

As to 6mer-2-513 (RRLTRK), the Binding affinity stood at 121 Ru.

For the substance 6mer-2-514 (KGLQKK), the Binding affinity worked out at 124 Ru.

As to 6mer-2-515 (RWYCRK), the Binding affinity is given as 123 Ru.

As for 6mer-2-516 (RQQQKK), the Binding affinity was 146 Ru.

For the substance 6mer-2-517 (KLRTKK), the Binding affinity turned out to be 153 Ru.

Regarding 6mer-2-518 (KLVTKK), the Binding affinity came out at 151 Ru.

As to 6mer-2-519 (KQIQRR), the Binding affinity is reported as 135 Ru.

As to 6mer-2-520 (KSYCKR), the Binding affinity came to 144 Ru.

In the case of 6mer-2-521 (KQYTRK), the Binding affinity stood at 144 Ru.

6mer-2-522 (RVVLRK): the Binding affinity came out at 124 Ru.

Consider 6mer-2-523 (RGRYKR), for which the Binding affinity is reported as 146 Ru.

On to 6mer-2-524 (RGIQKR), for which the Binding affinity stood at 128 Ru.

Take 6mer-2-525 (KWVRKK): the Binding affinity is 145 Ru.

With 6mer-2-526 (RVLLRK), the Binding affinity came to 144 Ru.

For the substance 6mer-2-527 (RGQTRR), the Binding affinity is given as 145 Ru.

Take 6mer-2-528 (KGFRKK): the Binding affinity stood at 151 Ru.

In the case of 6mer-2-529 (KQQRKR), the Binding affinity worked out at 124 Ru.

As to 6mer-2-530 (RSYSKR), the Binding affinity is listed as 139 Ru.

For the substance 6mer-2-531 (KVIYKR), the Binding affinity was found to be 148 Ru.

6mer-2-532 (KSITKR): the Binding affinity was 147 Ru.

In the case of 6mer-2-533 (KRLLKR), the Binding affinity is given as 142 Ru.

Turning to 6mer-2-534 (RVQLRR), the Binding affinity was 139 Ru.

In the case of 6mer-2-535 (KLFCRR), the Binding affinity was found to be 133 Ru.

Take 6mer-2-536 (RWQRKK): the Binding affinity amounted to 125 Ru.

For 6mer-2-537 (KVLCKR), the Binding affinity was 153 Ru.

With 6mer-2-538 (KQFCKK), the Binding affinity was determined as 125 Ru.

Consider 6mer-2-539 (KWYTKK), for which the Binding affinity was found to be 127 Ru.

In the case of 6mer-2-540 (KRLTRR), the Binding affinity was determined as 142 Ru.

Take 6mer-2-541 (KGQCRK): the Binding affinity is 126 Ru.

For the substance 6mer-2-542 (RQIYRR), the Binding affinity worked out at 148 Ru.

As to 6mer-2-543 (RRQYRR), the Binding affinity worked out at 144 Ru.

With 6mer-2-544 (KVIQKR), the Binding affinity is 147 Ru.

Consider 6mer-2-545 (KLYCRK), for which the Binding affinity is 125 Ru.

On to 6mer-2-546 (RVFTKK), for which the Binding affinity amounted to 127 Ru.

On to 6mer-2-547 (RWQCKR), for which the Binding affinity turned out to be 135 Ru.

Regarding 6mer-2-548 (RLQCRR), the Binding affinity is given as 142 Ru.

Turning to 6mer-2-549 (KQLCKK), the Binding affinity came to 142 Ru.

Consider 6mer-2-550 (RSFTKK), for which the Binding affinity was determined as 148 Ru.

Regarding 6mer-2-551 (KWYTKR), the Binding affinity is 141 Ru.

In the case of 6mer-2-552 (RGLLRR), the Binding affinity was 148 Ru.

In the case of 6mer-2-553 (RSLQKK), the Binding affinity was found to be 124 Ru.

Consider 6mer-2-554 (RWRCRR), for which the Binding affinity is given as 121 Ru.

For the substance 6mer-2-555 (RSVSKK), the Binding affinity worked out at 154 Ru.

For the substance 6mer-2-556 (RSICKK), the Binding affinity is 148 Ru.

In the case of 6mer-2-557 (KWVLRK), the Binding affinity worked out at 123 Ru.

For the substance 6mer-2-558 (KSVCKK), the Binding affinity is reported as 154 Ru.

On to 6mer-2-559 (KGQLRR), for which the Binding affinity was determined as 121 Ru.

6mer-2-560 (RQYTRR): the Binding affinity came out at 153 Ru.

6mer-2-561 (RRVLKK): the Binding affinity was 142 Ru.

For the substance 6mer-2-562 (RQQRKR), the Binding affinity worked out at 136 Ru.

Regarding 6mer-2-563 (KGYQKR), the Binding affinity is given as 131 Ru.

In the case of 6mer-2-564 (KQVYRK), the Binding affinity worked out at 148 Ru.

Take 6mer-2-565 (KSRRRR): the Binding affinity is reported as 147 Ru.

6mer-2-566 (KRLSKK): the Binding affinity is 139 Ru.

In the case of 6mer-2-567 (KLYYRK), the Binding affinity turned out to be 146 Ru.

For the substance 6mer-2-568 (KGFQKK), the Binding affinity was 142 Ru.

For 6mer-2-569 (RWQLRK), the Binding affinity is on record as 135 Ru.

For 6mer-2-570 (RVYYKR), the Binding affinity was 148 Ru.

6mer-2-571 (RGYQRR): the Binding affinity was 135 Ru.

Consider 6mer-2-572 (KSQRRK), for which the Binding affinity is given as 148 Ru.

As for 6mer-2-573 (KLYLRR), the Binding affinity turned out to be 121 Ru.

With 6mer-2-574 (KGVYRK), the Binding affinity amounted to 153 Ru.

For 6mer-2-575 (RGYSRK), the Binding affinity came to 139 Ru.

Consider 6mer-2-576 (KGVSRR), for which the Binding affinity was determined as 139 Ru.

Turning to 6mer-2-577 (KRVQRR), the Binding affinity worked out at 139 Ru.

As to 6mer-2-578 (RSVLRK), the Binding affinity is reported as 135 Ru.

For the substance 6mer-2-579 (RWQYRK), the Binding affinity turned out to be 135 Ru.

Consider 6mer-2-580 (KWQQRR), for which the Binding affinity is reported as 121 Ru.

On to 6mer-2-581 (RVQQKR), for which the Binding affinity came out at 139 Ru.

For the substance 6mer-2-582 (RWQTRK), the Binding affinity stood at 148 Ru.

In the case of 6mer-2-583 (KSVTKK), the Binding affinity is on record as 154 Ru.

Turning to 6mer-2-584 (KRLTRK), the Binding affinity is 148 Ru.

On to 6mer-2-585 (RSFRRK), for which the Binding affinity worked out at 136 Ru.

In the case of 6mer-2-586 (RWLSRK), the Binding affinity worked out at 121 Ru.

For the substance 6mer-2-587 (KRISKR), the Binding affinity is 148 Ru.

Consider 6mer-2-588 (KWFYKK), for which the Binding affinity was determined as 149 Ru.

Regarding 6mer-2-589 (RWQQRK), the Binding affinity turned out to be 153 Ru.

6mer-2-590 (KGRLRK): the Binding affinity stood at 148 Ru.

As for 6mer-2-591 (KGILRR), the Binding affinity turned out to be 146 Ru.

Consider 6mer-2-592 (RWVLRK), for which the Binding affinity amounted to 122 Ru.

Turning to 6mer-2-593 (RSQLKR), the Binding affinity was 139 Ru.

6mer-2-594 (RWYRRR): the Binding affinity is on record as 139 Ru.

For 6mer-2-595 (KLRCKK), the Binding affinity was determined as 154 Ru.

As for 6mer-2-596 (KGIQKK), the Binding affinity was 153 Ru.

With 6mer-2-597 (KQFLRK), the Binding affinity is 154 Ru.

Take 6mer-2-598 (KVFRRR): the Binding affinity was 146 Ru.
